Data as given in publication PMC11455607.
Where two headings read alike, the source gives them in different places.

Columns and labels:
Cy3-CRX HD = Cy3-CRX HD (UniProt O43186 31-107); assay: smTIRFM
Cy3-CRX HD;NRL DBD [1] = target: T1, Cy3-CRX HD;NRL DBD (;, UniProt O43186;P54845 31-107;128-237, |); assay: smTIRFM
Cy3-CRX HD;NRL DBD [2] = target: T1, Cy3-CRX HD;NRL DBD; assay: smTIRFM; remark: listed apart in the source
CRX HD E42K [3] = target: T2, CRX HD E42K (UniProt O43186 31-107, E42K); assay: BLI
CRX HD R41Q [4] = target: T3, CRX HD R41Q (UniProt O43186 31-107, R41Q); assay: BLI
CRX HD (His) = CRX HD (His) (UniProt O43186 31-107); assay: BLI
CRX HD R90W = CRX HD R90W (UniProt O43186 31-107, R90W); assay: BLI
CRX HD E42K [5] = target: T2, CRX HD E42K; assay: SEC-MALS
CRX HD R41Q [6] = target: T3, CRX HD R41Q; assay: SEC-MALS

T1 sequence (O43186 31-107, chain 1 of 2): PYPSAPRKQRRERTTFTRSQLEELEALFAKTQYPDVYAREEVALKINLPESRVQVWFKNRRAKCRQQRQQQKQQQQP
T1 sequence (P54845 128-237, chain 2 of 2): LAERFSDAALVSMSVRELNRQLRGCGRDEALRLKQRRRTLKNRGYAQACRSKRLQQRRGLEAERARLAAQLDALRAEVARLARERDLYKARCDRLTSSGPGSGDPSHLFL
T3 sequence (O43186 31-107 R41Q): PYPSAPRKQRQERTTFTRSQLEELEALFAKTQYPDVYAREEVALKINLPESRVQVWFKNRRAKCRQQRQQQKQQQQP
T2 sequence (O43186 31-107 E42K): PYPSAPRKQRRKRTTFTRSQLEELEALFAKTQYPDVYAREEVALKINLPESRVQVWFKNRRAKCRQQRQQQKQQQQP
Sequence of Cy3-CRX HD (O43186 31-107): as the sequence (O43186 31-107, chain 1 of 2) above
Sequence of CRX HD (His) (O43186 31-107): as the sequence (O43186 31-107, chain 1 of 2) above
Sequence of CRX HD R90W (O43186 31-107 R90W): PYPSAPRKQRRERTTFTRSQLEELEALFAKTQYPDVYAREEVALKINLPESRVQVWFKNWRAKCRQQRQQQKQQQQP

B1: NRE-Ret4 38-mer biotinylated (dsDNA)
DNA 1: CCAGATGCTGATTCAGCCAGGAGCTTAGGAGGGGGAGG
DNA 2: CCTCCCCCTCCTAAGCTCCTGGCTGAATCAGCATCTGG
Kd (Cy3-CRX HD): 55.1 nM | Kd (Cy3-CRX HD;NRL DBD [1]): 28 nM | Kd (Cy3-CRX HD;NRL DBD [2]): 39.6 nM

B2: Ret4 20-mer biotinylated (dsDNA)
DNA 1: CAGGAGCTTAGGAGGGGGAG
DNA 2: CTCCCCCTCCTAAGCTCCTG
Kd (CRX HD E42K [3]): 30 ± 10 nM | Kd (CRX HD R41Q [4]): 1250 ± 30 nM | Kd (CRX HD (His)): 430 ± 30 nM | Kd (CRX HD R90W): 900 ± 30 nM

B3: Ret4 21-mer (dsDNA)
DNA 1: CCAGGAGCTTAGGAGGGGGAG
DNA 2: CCTCCCCCTCCTAAGCTCCTG
binding result (CRX HD E42K [5]): binds | binding result (CRX HD R41Q [6]): binds
